Source: PMC9191346

Molecular target: enhanced green fluorescent protein-labeled BLM (BLM-eGFP) (not stated (Gallus gallus or human BLM cloned))
Assay: optical tweezers with confocal fluorescence microscopy

rupture force of the DNA tether bridged by the oligomeric BLM: < 300 pN
Substance: enhanced green fluorescent protein-labeled BLM (BLM-eGFP) (domain or fragment)
